Laboratory results reported in patent publication US20110020842.

Tests used:
[1] = target: T1, consensus peptide substrate eEF2p (Ac-RKKYKFNEDTERRRFL)
T1 chain: RKKYKFNEDTERRRFL

[2] = target: arrayed peptide library (198 peptide mixtures with a central fixed Ser/Thr phosphorylation site, degenerate flanking positions and a carboxy-terminal biotin tag)

B1: eEF2 kinase (Elongation Factor 2 Kinase) (protein)
chain: MADEDLIFRLEGVDGGQSPRAGHDGDSDGDSDDEEGYFICPITDDPSSNQNVNSKVNKYYSNLTKSERYSSSGSPANSFHFKEAWKHAIQKAKHMPDPWAEFHLEDIATERATRHRYNAVTGEWLDDEVLIKMASQPFGRGAMRECFRTKKLSNFLHAQQWKGASNYVAKRYIEPVDRDVYFEDVRLQMEAKLWGEEYNRHKPPKQVDIMQMCIIELKDRPGKPLFHLEHYIEGKYIKYNSNSGFVRDDNIRLTPQAFSHFTFERSGHQLIVVDIQGVGDLYTDPQIHTETGTDFGDGNLGVRGMALFFYSHACNRICESMGLAPFDLSPRERDAVNQNTKLLQSAKTILRGTEEKCGSPQVRTLSGSRPPLLRPLSENSGDENMSDVTFDSLPSSPSSATPHSQKLDHLHWPVFSDLDNMASRDHDHLDNHRESENSGDSGYPSEKRGELDDPEPREHGHSYSNRKYESDEDSLGSSGRVCVEKWNLLNSSRLHLPRASAVALEVQRLNALDLEKKIGKSILGKVHLAMVRYHEGGRFCEKGEEWDQESAVFHLEHAANLGELEAIVGLGLMYSQLPHHILADVSLKETEENKTKGFDYLLKAAEAGDRQSMILVARAFDSGQNLSPDRCQDWLEALHWYNTALEMTDCDEGGEYDGMQDEPRYMMLAREAEMLFTGGYGLEKDPQRSGDLYTQAAEAAMEAMKGRLANQYYQKAEEAWAQMEE
fold increase in activity as compared to peptide MH-U [1]: 30 to 35 fold increase in activity | phosphorylation at a single substrate concentration (100 µM) [1]: both peptides are efficiently phosphorylated by their respective kinases | phosphorylation of peptide library (radiolabel incorporation) [2]: The kinase was able to efficiently phosphorylate peptides within the library
